Measured values as given in US20230257475A1.
Where two headings read alike, the source gives them in different places.

How the values were obtained:
human CD20 (human) [1] = target: human CD20 (human) (UniProt P11836); experiment: flow cytometry on Raji cells (CD20 on the cell surface), serial dilution of the mAb, detection with PE-conjugated mouse anti-human IgG1Fc, MFI
human CD20 (human) [2] = target: human CD20 (human) (UniProt P11836); experiment: as above; remark: listed apart in the source
human CD22 (human) = human CD22 (human) (UniProt P20273); experiment: flow cytometry on K562.huCD22.Luc cells against parental K562 cells
[3] = target: human CD19, CD20 and CD22 on CD19+CD20+CD22+ tri-positive B lymphoma cells (Raji, Daudi) (human), P15391; experiment: cell-based or functional assay

Sequence of UniProt P11836 (P11836 whole entry): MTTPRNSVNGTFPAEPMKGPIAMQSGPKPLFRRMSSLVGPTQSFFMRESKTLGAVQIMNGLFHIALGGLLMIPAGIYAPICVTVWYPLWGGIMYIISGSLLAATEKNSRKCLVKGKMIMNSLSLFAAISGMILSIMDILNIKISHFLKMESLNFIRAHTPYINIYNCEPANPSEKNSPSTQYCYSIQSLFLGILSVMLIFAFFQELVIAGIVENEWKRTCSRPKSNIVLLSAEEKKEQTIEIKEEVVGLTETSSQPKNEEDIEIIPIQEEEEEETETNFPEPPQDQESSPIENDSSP

Molecule Leu16 Fab-huIgG1Fc mAb (antibody) has an EC50 (human CD20 (human) [1]) of 8.5 nM and an EC50 (human CD20 (human) [2]) of 13.2 nM.

With “PE conjugated anti-human CD22 antibody (Miltenyi Biotec. Cat. No. 130-105-086)” the MFI fold over K562 cells (negative control) (human CD22 (human)) was 642 fold.

With Rituximab Fab-huIgG1Fc mAb (antibody) the EC50 (human CD20 (human) [1]) was 8.1 nM.

B1: AIO-8C1 CAR (protein)
chain: QVQLVESGGGSVQAGGSLRLSCGASGNINSRNCMGWFRQAPGKEREGVAAIGQVTGRSYYVDSVKGRFTISLDNAKNTLYLQMNTLKPEDTAMYYCAAAPGCLLSALRSADYRNWGQGTQVTVSSGGGGSEVQLVESGPGLVKPSQTLSLTCTVSGASITTGEFYWNWFRQPPGKGLEWMGAIAASGSTTYSPSFESRTSISRDTSENQFYLQLSSVTPEDTAVYYCGRSFGVAAVTTGQNRGQGTQVTVSSGGGGSQIQLVESGGGLVQPGGSLRLSCAASGFTFSNYPMTWLRQAPGKGLESVSDITSGGDRPYYADSVKGRFTISRDNAKNMLYLEMNSLKTEDTAVYYCATWDRTLTGQGTQVTVSSTSTTTPAPRPPTPAPTIASQPLSLRPEACRPAAGGAVHTRGLDFACDIYIWAPLAGTCGVLLLSLVITLYCKRGRKKLLYIFKQPFMRPVQTTQEEDGCSCRFPEEEEGGCELRVKFSRSADAPAYQQGQNQLYNELNLGRREEYDVLDKRRGRDPEMGGKPRRKNPQEGLYNELQKDKMAEAYSEIGMKGERRRGKGHDGLYQGLSTATKDTYDALHMQALPPR
In the case of B1, the IFN-γ release in co-culture with Raji cells, 24 hours, against AIO-7C1 CAR-T cells [3] is reported as 2 fold.
